{"source": "patent US6160106", "biological_target": "Fas/APO-1 (human) (UniProt P25445)"}
{"substance": "agonistic anti-APO-1 monoclonal antibody", "values": [{"measurement": "cell death of HeLa cells (rounding up and detachment, neutral red dye uptake)", "value": 70, "unit": "%"}]}
